The supplement of paper PMC9732359
± gives the uncertainty stated by the source.

Assay: protein stability index of a GFP-peptide fusion (yeast GPS) (PSI 1-4); higher = more stable; sorted into four equal gates, so the index is relative within each strain
Summary of the method: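 Plasmids in a pooled yeast library fused tiled 17-residue yeast protein peptides downstream of GFP and also expressed Cherry. Mid-log cultures grown without leucine were sorted into four equal gates by GFP/Cherry fluorescence ratio. Each gate's plasmids were PCR-amplified and Illumina-sequenced, and reads were matched to strains by barcodes. The protein stability index is derived by multiplying each gate's read frequency by its gate number and summing the results.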

Row | Sequence | protein stability index (doa10∆) | protein stability index (pdr5∆) | protein stability index (san1∆) | protein stability index (ubr1∆)
1 | TIYNNIREGQNQKIPDN [SIR3] | 2.96 ± 0.05 | 3.18 ± 0.064 | 2.98 ± 0.056 | 3.02 ± 0.045
2 | GAGIERELARIKKYASV [RPL3] | 3.49 ± 0.21 | 3.46 ± 0.17 |  | 
3 | ATASAIAATAVASLVLA [RPL4A] | 2.37 ± 0.1 | 1.78 ± 0.071 | 1.91 ± 0.17 | 1.88 ± 0.082
4 | AFSSVEHIIRDVHNGYI [COB] | 3.16 ± 0.23 | 3 ± 0.26 | 3.37 ± 0.24 | 2.99 ± 0.16
5 | DEELVSHFVSAVSTIAS [RPP0] | 3.73 ± 0.21 | 3.12 ± 0.28 | 2.76 ± 0.18 | 2.03 ± 0.2
6 | AASSQVSIVKLDTQLIT [SNF12] | 1.69 ± 0.08 | 1.74 ± 0.07 | 1.64 ± 0.16 | 2.02 ± 0.11
7 | AGLEITSDNLLTITKAA [RPP1B] | 2.42 ± 0.051 | 2.55 ± 0.048 | 2.78 ± 0.064 | 2.65 ± 0.046
8 | SKFNNADDVFTGTGLQD [RPC31] | 3.35 ± 0.1 | 3.38 ± 0.091 | 3.12 ± 0.056 | 3.17 ± 0.066
9 | VDENETVLESLGRLNKL [LIN1] | 2.79 ± 0.075 | 3.03 ± 0.073 | 2.88 ± 0.069 | 3.03 ± 0.053
10 | DKLSGCYAPRPSAGPHK [RPS4A] | 2.2 ± 0.065 | 1.96 ± 0.063 | 1.76 ± 0.099 | 1.64 ± 0.041
11 | IDIQTQDLNQRFQDPYV [RRI1] |  | 2.86 ± 0.18 | 2.28 ± 0.22 | 
12 | DITVHGEQIIVHPVNER [RRP45] | 2.23 ± 0.078 | 2.15 ± 0.1 | 1.82 ± 0.14 | 1.9 ± 0.083
13 | ETSCDNYHPMNIDETSD [SMC4] | 3.02 ± 0.064 | 3.16 ± 0.052 | 3.15 ± 0.041 | 3.17 ± 0.051
14 | NLLIQRLNFNQNSSKIV [SWI3] | 2.71 ± 0.053 | 2.81 ± 0.051 | 3.06 ± 0.038 | 2.93 ± 0.041
15 | LSINEKDFVTMAIEIIN [YCG1] | 2.44 ± 0.082 | 2.38 ± 0.077 | 2.14 ± 0.093 | 2.15 ± 0.053
16 | QKKVLIDGPKAGVPRQA [RPL14A] | 3.45 ± 0.087 | 3.35 ± 0.084 | 3.05 ± 0.059 | 3.35 ± 0.073
17 | QKSFEQLNSRAVAVVVD [RPN11] | 1.45 ± 0.12 | 1.72 ± 0.09 | 1.51 ± 0.16 | 1.48 ± 0.058
18 | MAFQKDAKSSAYSSRFQ [RPL5] | 2.67 ± 0.11 | 2.89 ± 0.072 | 3.02 ± 0.061 | 2.92 ± 0.064
19 | LGRVRNHFIFNVESAGA [RPC40] | 1.38 ± 0.062 | 1.5 ± 0.069 | 1.62 ± 0.09 | 1.27 ± 0.065
20 | EAFIASGITDPYEMYKY [FAS2] | 1.81 ± 0.038 | 2.06 ± 0.05 | 1.73 ± 0.068 | 2.14 ± 0.045
21 | TENATENDQQDNEEWMN [LIN1] | 3.23 ± 0.072 | 3.03 ± 0.067 | 3.06 ± 0.062 | 2.77 ± 0.05
22 | CRVCSSHTGLVRKYDLN [RPS29B] | 2.56 ± 0.058 | 2.33 ± 0.059 | 2.38 ± 0.079 | 1.94 ± 0.047
23 | DKKVTLITSEMFDAFVS [SIN4] | 1.56 ± 0.059 | 1.46 ± 0.049 | 1.36 ± 0.098 | 1.28 ± 0.042
24 | SCISISDIISMLQISDD [RRI2] | 1.82 ± 0.083 | 1.34 ± 0.061 | 1.19 ± 0.12 | 1.14 ± 0.04
25 | LAYRNYWTQYLGLFIHK [YJL039C/NUP192] | 1.94 ± 0.057 | 1.56 ± 0.037 | 1.9 ± 0.055 | 2.02 ± 0.039
26 | ISMILRNISFSDNNSRI [SWI1] | 3.02 ± 0.06 | 2.86 ± 0.059 | 2.77 ± 0.058 | 3.08 ± 0.04
27 | NEKFEIELLSLDDDSIV [SRB4] | 2.58 ± 0.096 | 3.07 ± 0.093 | 2.72 ± 0.081 | 3.1 ± 0.1
